According to patent US20110118131A1 (published 2011):

T1: Ep-CAM (UniProt P16422 24-265, limits assumed)
T1 sequence (looked up): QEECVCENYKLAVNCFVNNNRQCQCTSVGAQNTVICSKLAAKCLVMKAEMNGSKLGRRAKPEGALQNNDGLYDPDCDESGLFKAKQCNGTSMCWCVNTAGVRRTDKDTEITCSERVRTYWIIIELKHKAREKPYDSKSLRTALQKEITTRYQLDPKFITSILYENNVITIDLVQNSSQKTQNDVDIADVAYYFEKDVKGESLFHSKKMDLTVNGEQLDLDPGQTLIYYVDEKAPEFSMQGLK


biological target: T1, Ep-CAM; test: Biacore, Fab periplasmic extract on immobilised Epcam

| Binder | binding result | fold difference in affinity vs original |
| --- | --- | --- |
| ING-1 Fab, heavy chain N52A (Fab, V domains shown, Fab in periplasmic extract) VH: QIQLVQSGPELKKPGETVKISCKASGYTFTKYGMNWVKQAPGKGLKWMGWIATYTEEPTYGDDFKGRFAFSLETSASTANLQINNLKSEDTATYFCARFGSAVDYWGQGTSVTVSS VL: DIVMTQAAFSNPVTLGTSGSISCRSSKSLLHSNGITYLYWYLQKPGQSPQLLIYQMSNLASGVPDRFSSSGSGTDFTLRISRVEAEDVGVYYCAQNLELPRTFGGGTKLEMKR | no binding |  |
| ING-1 Fab, heavy chain T53G (Fab, V domains shown, Fab in periplasmic extract) VH: QIQLVQSGPELKKPGETVKISCKASGYTFTKYGMNWVKQAPGKGLKWMGWINGYTEEPTYGDDFKGRFAFSLETSASTANLQINNLKSEDTATYFCARFGSAVDYWGQGTSVTVSS VL: DIVMTQAAFSNPVTLGTSGSISCRSSKSLLHSNGITYLYWYLQKPGQSPQLLIYQMSNLASGVPDRFSSSGSGTDFTLRISRVEAEDVGVYYCAQNLELPRTFGGGTKLEMKR | no binding |  |
| ING-1 Fab, heavy chain W50G (Fab, V domains shown, Fab in periplasmic extract) VH: QIQLVQSGPELKKPGETVKISCKASGYTFTKYGMNWVKQAPGKGLKWMGGINTYTEEPTYGDDFKGRFAFSLETSASTANLQINNLKSEDTATYFCARFGSAVDYWGQGTSVTVSS VL: DIVMTQAAFSNPVTLGTSGSISCRSSKSLLHSNGITYLYWYLQKPGQSPQLLIYQMSNLASGVPDRFSSSGSGTDFTLRISRVEAEDVGVYYCAQNLELPRTFGGGTKLEMKR |  | 0.03 fold |
| ING-1 Fab, heavy chain N52L (Fab, V domains shown, Fab in periplasmic extract) VH: QIQLVQSGPELKKPGETVKISCKASGYTFTKYGMNWVKQAPGKGLKWMGWILTYTEEPTYGDDFKGRFAFSLETSASTANLQINNLKSEDTATYFCARFGSAVDYWGQGTSVTVSS VL: DIVMTQAAFSNPVTLGTSGSISCRSSKSLLHSNGITYLYWYLQKPGQSPQLLIYQMSNLASGVPDRFSSSGSGTDFTLRISRVEAEDVGVYYCAQNLELPRTFGGGTKLEMKR | no binding |  |
| ING-1 Fab, heavy chain T59P (Fab, V domains shown, Fab in periplasmic extract) VH: QIQLVQSGPELKKPGETVKISCKASGYTFTKYGMNWVKQAPGKGLKWMGWINTYTEEPPYGDDFKGRFAFSLETSASTANLQINNLKSEDTATYFCARFGSAVDYWGQGTSVTVSS VL: DIVMTQAAFSNPVTLGTSGSISCRSSKSLLHSNGITYLYWYLQKPGQSPQLLIYQMSNLASGVPDRFSSSGSGTDFTLRISRVEAEDVGVYYCAQNLELPRTFGGGTKLEMKR | no binding |  |
| ING-1 Fab, heavy chain N52G (Fab, V domains shown, Fab in periplasmic extract) VH: QIQLVQSGPELKKPGETVKISCKASGYTFTKYGMNWVKQAPGKGLKWMGWIGTYTEEPTYGDDFKGRFAFSLETSASTANLQINNLKSEDTATYFCARFGSAVDYWGQGTSVTVSS VL: DIVMTQAAFSNPVTLGTSGSISCRSSKSLLHSNGITYLYWYLQKPGQSPQLLIYQMSNLASGVPDRFSSSGSGTDFTLRISRVEAEDVGVYYCAQNLELPRTFGGGTKLEMKR | no binding |  |
| ING-1 Fab, heavy chain W50L (Fab, V domains shown, Fab in periplasmic extract) VH: QIQLVQSGPELKKPGETVKISCKASGYTFTKYGMNWVKQAPGKGLKWMGLINTYTEEPTYGDDFKGRFAFSLETSASTANLQINNLKSEDTATYFCARFGSAVDYWGQGTSVTVSS VL: DIVMTQAAFSNPVTLGTSGSISCRSSKSLLHSNGITYLYWYLQKPGQSPQLLIYQMSNLASGVPDRFSSSGSGTDFTLRISRVEAEDVGVYYCAQNLELPRTFGGGTKLEMKR |  | 0.04 fold |
| ING-1 Fab, heavy chain T53P (Fab, V domains shown, Fab in periplasmic extract) VH: QIQLVQSGPELKKPGETVKISCKASGYTFTKYGMNWVKQAPGKGLKWMGWINPYTEEPTYGDDFKGRFAFSLETSASTANLQINNLKSEDTATYFCARFGSAVDYWGQGTSVTVSS VL: DIVMTQAAFSNPVTLGTSGSISCRSSKSLLHSNGITYLYWYLQKPGQSPQLLIYQMSNLASGVPDRFSSSGSGTDFTLRISRVEAEDVGVYYCAQNLELPRTFGGGTKLEMKR | no binding |  |
| ING-1 Fab, heavy chain W50I (Fab, V domains shown, Fab in periplasmic extract) VH: QIQLVQSGPELKKPGETVKISCKASGYTFTKYGMNWVKQAPGKGLKWMGIINTYTEEPTYGDDFKGRFAFSLETSASTANLQINNLKSEDTATYFCARFGSAVDYWGQGTSVTVSS VL: DIVMTQAAFSNPVTLGTSGSISCRSSKSLLHSNGITYLYWYLQKPGQSPQLLIYQMSNLASGVPDRFSSSGSGTDFTLRISRVEAEDVGVYYCAQNLELPRTFGGGTKLEMKR |  | 0.07 fold |
| ING-1 Fab, heavy chain N52T (Fab, V domains shown, Fab in periplasmic extract) VH: QIQLVQSGPELKKPGETVKISCKASGYTFTKYGMNWVKQAPGKGLKWMGWITTYTEEPTYGDDFKGRFAFSLETSASTANLQINNLKSEDTATYFCARFGSAVDYWGQGTSVTVSS VL: DIVMTQAAFSNPVTLGTSGSISCRSSKSLLHSNGITYLYWYLQKPGQSPQLLIYQMSNLASGVPDRFSSSGSGTDFTLRISRVEAEDVGVYYCAQNLELPRTFGGGTKLEMKR | no binding |  |
| ING-1 Fab, heavy chain Y32A (Fab, V domains shown, Fab in periplasmic extract) VH: QIQLVQSGPELKKPGETVKISCKASGYTFTKAGMNWVKQAPGKGLKWMGWINTYTEEPTYGDDFKGRFAFSLETSASTANLQINNLKSEDTATYFCARFGSAVDYWGQGTSVTVSS VL: DIVMTQAAFSNPVTLGTSGSISCRSSKSLLHSNGITYLYWYLQKPGQSPQLLIYQMSNLASGVPDRFSSSGSGTDFTLRISRVEAEDVGVYYCAQNLELPRTFGGGTKLEMKR |  | 0.01 fold |
| ING-1 Fab, heavy chain W50T (Fab, V domains shown, Fab in periplasmic extract) VH: QIQLVQSGPELKKPGETVKISCKASGYTFTKYGMNWVKQAPGKGLKWMGTINTYTEEPTYGDDFKGRFAFSLETSASTANLQINNLKSEDTATYFCARFGSAVDYWGQGTSVTVSS VL: DIVMTQAAFSNPVTLGTSGSISCRSSKSLLHSNGITYLYWYLQKPGQSPQLLIYQMSNLASGVPDRFSSSGSGTDFTLRISRVEAEDVGVYYCAQNLELPRTFGGGTKLEMKR |  | 0.03 fold |
| ING-1 Fab, heavy chain N52I (Fab, V domains shown, Fab in periplasmic extract) VH: QIQLVQSGPELKKPGETVKISCKASGYTFTKYGMNWVKQAPGKGLKWMGWIITYTEEPTYGDDFKGRFAFSLETSASTANLQINNLKSEDTATYFCARFGSAVDYWGQGTSVTVSS VL: DIVMTQAAFSNPVTLGTSGSISCRSSKSLLHSNGITYLYWYLQKPGQSPQLLIYQMSNLASGVPDRFSSSGSGTDFTLRISRVEAEDVGVYYCAQNLELPRTFGGGTKLEMKR | no binding |  |
| ING-1 Fab, heavy chain P58T (Fab, V domains shown, Fab in periplasmic extract) VH: QIQLVQSGPELKKPGETVKISCKASGYTFTKYGMNWVKQAPGKGLKWMGWINTYTEETTYGDDFKGRFAFSLETSASTANLQINNLKSEDTATYFCARFGSAVDYWGQGTSVTVSS VL: DIVMTQAAFSNPVTLGTSGSISCRSSKSLLHSNGITYLYWYLQKPGQSPQLLIYQMSNLASGVPDRFSSSGSGTDFTLRISRVEAEDVGVYYCAQNLELPRTFGGGTKLEMKR |  | 1 fold |
| ING-1 Fab, heavy chain W50P (Fab, V domains shown, Fab in periplasmic extract) VH: QIQLVQSGPELKKPGETVKISCKASGYTFTKYGMNWVKQAPGKGLKWMGPINTYTEEPTYGDDFKGRFAFSLETSASTANLQINNLKSEDTATYFCARFGSAVDYWGQGTSVTVSS VL: DIVMTQAAFSNPVTLGTSGSISCRSSKSLLHSNGITYLYWYLQKPGQSPQLLIYQMSNLASGVPDRFSSSGSGTDFTLRISRVEAEDVGVYYCAQNLELPRTFGGGTKLEMKR | no binding |  |
| ING-1 Fab, heavy chain S101L (Fab, V domains shown, Fab in periplasmic extract) VH: QIQLVQSGPELKKPGETVKISCKASGYTFTKYGMNWVKQAPGKGLKWMGWINTYTEEPTYGDDFKGRFAFSLETSASTANLQINNLKSEDTATYFCARFGLAVDYWGQGTSVTVSS VL: DIVMTQAAFSNPVTLGTSGSISCRSSKSLLHSNGITYLYWYLQKPGQSPQLLIYQMSNLASGVPDRFSSSGSGTDFTLRISRVEAEDVGVYYCAQNLELPRTFGGGTKLEMKR | no binding |  |
| ING-1 Fab, heavy chain N52V (Fab, V domains shown, Fab in periplasmic extract) VH: QIQLVQSGPELKKPGETVKISCKASGYTFTKYGMNWVKQAPGKGLKWMGWIVTYTEEPTYGDDFKGRFAFSLETSASTANLQINNLKSEDTATYFCARFGSAVDYWGQGTSVTVSS VL: DIVMTQAAFSNPVTLGTSGSISCRSSKSLLHSNGITYLYWYLQKPGQSPQLLIYQMSNLASGVPDRFSSSGSGTDFTLRISRVEAEDVGVYYCAQNLELPRTFGGGTKLEMKR | no binding |  |
| ING-1 Fab, heavy chain T55G (Fab, V domains shown, Fab in periplasmic extract) VH: QIQLVQSGPELKKPGETVKISCKASGYTFTKYGMNWVKQAPGKGLKWMGWINTYGEEPTYGDDFKGRFAFSLETSASTANLQINNLKSEDTATYFCARFGSAVDYWGQGTSVTVSS VL: DIVMTQAAFSNPVTLGTSGSISCRSSKSLLHSNGITYLYWYLQKPGQSPQLLIYQMSNLASGVPDRFSSSGSGTDFTLRISRVEAEDVGVYYCAQNLELPRTFGGGTKLEMKR |  | 0.02 fold |
| ING-1 Fab, heavy chain W50V (Fab, V domains shown, Fab in periplasmic extract) VH: QIQLVQSGPELKKPGETVKISCKASGYTFTKYGMNWVKQAPGKGLKWMGVINTYTEEPTYGDDFKGRFAFSLETSASTANLQINNLKSEDTATYFCARFGSAVDYWGQGTSVTVSS VL: DIVMTQAAFSNPVTLGTSGSISCRSSKSLLHSNGITYLYWYLQKPGQSPQLLIYQMSNLASGVPDRFSSSGSGTDFTLRISRVEAEDVGVYYCAQNLELPRTFGGGTKLEMKR |  | 0.02 fold |
| ING-1 Fab, heavy chain N52P (Fab, V domains shown, Fab in periplasmic extract) VH: QIQLVQSGPELKKPGETVKISCKASGYTFTKYGMNWVKQAPGKGLKWMGWIPTYTEEPTYGDDFKGRFAFSLETSASTANLQINNLKSEDTATYFCARFGSAVDYWGQGTSVTVSS VL: DIVMTQAAFSNPVTLGTSGSISCRSSKSLLHSNGITYLYWYLQKPGQSPQLLIYQMSNLASGVPDRFSSSGSGTDFTLRISRVEAEDVGVYYCAQNLELPRTFGGGTKLEMKR | no binding |  |
| ING-1 Fab, heavy chain W50A (Fab, V domains shown, Fab in periplasmic extract) VH: QIQLVQSGPELKKPGETVKISCKASGYTFTKYGMNWVKQAPGKGLKWMGAINTYTEEPTYGDDFKGRFAFSLETSASTANLQINNLKSEDTATYFCARFGSAVDYWGQGTSVTVSS VL: DIVMTQAAFSNPVTLGTSGSISCRSSKSLLHSNGITYLYWYLQKPGQSPQLLIYQMSNLASGVPDRFSSSGSGTDFTLRISRVEAEDVGVYYCAQNLELPRTFGGGTKLEMKR |  | 0.03 fold |
